Experiments:
NTHL1 = biological target: T1, NTHL1 (UniProt P78549 1-304); test: EMSA
T1 sequence: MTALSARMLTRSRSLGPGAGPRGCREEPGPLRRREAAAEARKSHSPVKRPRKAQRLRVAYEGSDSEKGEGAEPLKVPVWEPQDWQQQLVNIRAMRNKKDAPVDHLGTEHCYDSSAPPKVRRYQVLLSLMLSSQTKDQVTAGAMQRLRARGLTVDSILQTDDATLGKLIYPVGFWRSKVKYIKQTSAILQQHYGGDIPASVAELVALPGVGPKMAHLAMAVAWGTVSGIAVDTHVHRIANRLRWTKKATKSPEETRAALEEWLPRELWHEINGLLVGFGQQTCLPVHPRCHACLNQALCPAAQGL

BCL11B213-560 = BCL11B213-560 (UniProt Q9C0K0 213-560); test: EMSA
BCL11B213-560, sequence (Q9C0K0 213-560): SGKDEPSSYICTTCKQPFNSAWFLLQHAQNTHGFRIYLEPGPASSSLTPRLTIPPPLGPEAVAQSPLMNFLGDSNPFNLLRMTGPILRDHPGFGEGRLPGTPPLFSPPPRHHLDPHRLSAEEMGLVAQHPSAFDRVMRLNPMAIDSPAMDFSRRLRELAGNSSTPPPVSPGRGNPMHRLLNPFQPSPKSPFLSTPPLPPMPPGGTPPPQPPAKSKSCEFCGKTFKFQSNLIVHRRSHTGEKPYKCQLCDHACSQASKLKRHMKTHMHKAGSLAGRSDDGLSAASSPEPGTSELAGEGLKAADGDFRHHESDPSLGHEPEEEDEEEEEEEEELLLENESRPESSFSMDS

B1: thymine glycol 32-mer duplex (dsDNA)
DNA 1: CCGGTGCATGACACTGTTACCTATCCTCAGCG
DNA 2: CGCTGAGGATAGGTAACAGTGTCATGCACCGG
modifications: thymine glycol at position 18 of strand 1 (printed X, written T)
binding result (NTHL1): binds
binding result (BCL11B213-560): no binding

From paper PMC10783527
